Patent publication US20210388087A1 (Chugai, published 2021)

T1: Human CD3eg linker (human)
T1 construct: Single chain: epsilon and gamma subunits of human CD3 joined by a 29-mer linker, Flag-tag at the C-terminus; also called recombinant human CD3
T1 chain: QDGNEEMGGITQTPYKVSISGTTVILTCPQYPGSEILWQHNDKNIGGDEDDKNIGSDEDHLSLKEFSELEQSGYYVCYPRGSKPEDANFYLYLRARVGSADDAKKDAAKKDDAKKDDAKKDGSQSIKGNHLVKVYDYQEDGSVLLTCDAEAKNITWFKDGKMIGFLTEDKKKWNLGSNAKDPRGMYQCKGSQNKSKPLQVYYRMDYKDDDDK


Biological target: T1, Human CD3eg linker
Experiment: Biacore SPR, vs template H183/L072

fold change of affinity [fold] | Binder
1 | H183/L072 VH T100bM (antibody, name in Kabat numbering, V domains shown) VH: QVQLVESGGGLVQPGRSLRLSCAASGFTFSNAWMHWVRQAPGKGLEWVAQIKDKGNAYAAYYAPSVKGRFTISRDDSKNSIYLQMNSLKTEDTAVYYCHYVHYASASMVLPAFGVDAWGQGTTVTVSS VL: DIVMTQSPLSLPVTPGEPASISCQASQELVHMNRNTYLHWYQQKPGQAPRLLIYKVSNRFPGVPDRFSGSGSGTDFTLKISRVEAEDVGVYYCAQGTSVPFTFGQGTKLEIK
1.1 | H183/L072 VH T100bP (antibody, name in Kabat numbering, V domains shown) VH: QVQLVESGGGLVQPGRSLRLSCAASGFTFSNAWMHWVRQAPGKGLEWVAQIKDKGNAYAAYYAPSVKGRFTISRDDSKNSIYLQMNSLKTEDTAVYYCHYVHYASASPVLPAFGVDAWGQGTTVTVSS VL: DIVMTQSPLSLPVTPGEPASISCQASQELVHMNRNTYLHWYQQKPGQAPRLLIYKVSNRFPGVPDRFSGSGSGTDFTLKISRVEAEDVGVYYCAQGTSVPFTFGQGTKLEIK
1.1 | H183/L072 VH V63A (antibody, name in Kabat numbering, V domains shown) VH: QVQLVESGGGLVQPGRSLRLSCAASGFTFSNAWMHWVRQAPGKGLEWVAQIKDKGNAYAAYYAPSAKGRFTISRDDSKNSIYLQMNSLKTEDTAVYYCHYVHYASASTVLPAFGVDAWGQGTTVTVSS VL: DIVMTQSPLSLPVTPGEPASISCQASQELVHMNRNTYLHWYQQKPGQAPRLLIYKVSNRFPGVPDRFSGSGSGTDFTLKISRVEAEDVGVYYCAQGTSVPFTFGQGTKLEIK
1.4 | H183/L072 VH V63I (antibody, name in Kabat numbering, V domains shown) VH: QVQLVESGGGLVQPGRSLRLSCAASGFTFSNAWMHWVRQAPGKGLEWVAQIKDKGNAYAAYYAPSIKGRFTISRDDSKNSIYLQMNSLKTEDTAVYYCHYVHYASASTVLPAFGVDAWGQGTTVTVSS VL: DIVMTQSPLSLPVTPGEPASISCQASQELVHMNRNTYLHWYQQKPGQAPRLLIYKVSNRFPGVPDRFSGSGSGTDFTLKISRVEAEDVGVYYCAQGTSVPFTFGQGTKLEIK
1.6 | H183/L072 VH V63L (antibody, name in Kabat numbering, V domains shown) VH: QVQLVESGGGLVQPGRSLRLSCAASGFTFSNAWMHWVRQAPGKGLEWVAQIKDKGNAYAAYYAPSLKGRFTISRDDSKNSIYLQMNSLKTEDTAVYYCHYVHYASASTVLPAFGVDAWGQGTTVTVSS VL: DIVMTQSPLSLPVTPGEPASISCQASQELVHMNRNTYLHWYQQKPGQAPRLLIYKVSNRFPGVPDRFSGSGSGTDFTLKISRVEAEDVGVYYCAQGTSVPFTFGQGTKLEIK

The next lines start with the binder.

Binder | fold change of affinity [fold]
H183/L072 VH T100bA (antibody, name in Kabat numbering, V domains shown) VH: QVQLVESGGGLVQPGRSLRLSCAASGFTFSNAWMHWVRQAPGKGLEWVAQIKDKGNAYAAYYAPSVKGRFTISRDDSKNSIYLQMNSLKTEDTAVYYCHYVHYASASAVLPAFGVDAWGQGTTVTVSS VL: DIVMTQSPLSLPVTPGEPASISCQASQELVHMNRNTYLHWYQQKPGQAPRLLIYKVSNRFPGVPDRFSGSGSGTDFTLKISRVEAEDVGVYYCAQGTSVPFTFGQGTKLEIK | 1.1
H183/L072 VH T100bI (antibody, name in Kabat numbering, V domains shown) VH: QVQLVESGGGLVQPGRSLRLSCAASGFTFSNAWMHWVRQAPGKGLEWVAQIKDKGNAYAAYYAPSVKGRFTISRDDSKNSIYLQMNSLKTEDTAVYYCHYVHYASASIVLPAFGVDAWGQGTTVTVSS VL: DIVMTQSPLSLPVTPGEPASISCQASQELVHMNRNTYLHWYQQKPGQAPRLLIYKVSNRFPGVPDRFSGSGSGTDFTLKISRVEAEDVGVYYCAQGTSVPFTFGQGTKLEIK | 1.4
H183/L072 VH T100bL (antibody, name in Kabat numbering, V domains shown) VH: QVQLVESGGGLVQPGRSLRLSCAASGFTFSNAWMHWVRQAPGKGLEWVAQIKDKGNAYAAYYAPSVKGRFTISRDDSKNSIYLQMNSLKTEDTAVYYCHYVHYASASLVLPAFGVDAWGQGTTVTVSS VL: DIVMTQSPLSLPVTPGEPASISCQASQELVHMNRNTYLHWYQQKPGQAPRLLIYKVSNRFPGVPDRFSGSGSGTDFTLKISRVEAEDVGVYYCAQGTSVPFTFGQGTKLEIK | 1.1
